Measurements as given in patent US10640563B2, “Anti-B7-H3 antibodies and antibody drug conjugates” (AbbVie Inc., priority 2016, dated 2020).
Substitutions are numbered along the chain they refer to.

T1: soluble ECD of human B7-H3 (Homo sapiens, UniProt Q5ZPR3)
T1 construct: His tag (6xHis) (C); made in house
T1 sequence (Q5ZPR3 with tags, fused parts or gaps): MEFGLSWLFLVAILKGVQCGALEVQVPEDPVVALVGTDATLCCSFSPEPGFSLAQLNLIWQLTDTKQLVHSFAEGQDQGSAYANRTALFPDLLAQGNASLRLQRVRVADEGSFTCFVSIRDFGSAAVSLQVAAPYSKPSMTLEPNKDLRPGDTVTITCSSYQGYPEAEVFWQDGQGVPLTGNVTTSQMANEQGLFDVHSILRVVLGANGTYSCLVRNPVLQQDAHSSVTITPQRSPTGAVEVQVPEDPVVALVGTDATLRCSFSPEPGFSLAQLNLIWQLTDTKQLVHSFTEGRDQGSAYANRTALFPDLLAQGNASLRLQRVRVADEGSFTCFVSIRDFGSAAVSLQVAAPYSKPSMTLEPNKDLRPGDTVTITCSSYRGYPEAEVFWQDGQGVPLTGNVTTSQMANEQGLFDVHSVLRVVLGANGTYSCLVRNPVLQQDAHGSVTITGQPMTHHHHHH

T2: B7-H3 (Homo sapiens, UniProt Q5ZPR3)
T2 construct: His tag (6xHis) (C); made in house
T2 sequence (Q5ZPR3 with tags, fused parts or gaps): T1 sequence (Q5ZPR3 with tags, fused parts or gaps)

B1: Ab3: murine anti-B7-H3 mAb (mouse hybridoma derived) (antibody, V domains shown)
VH: QVQLQQPGAELVKPGASVKLSCKASGYTFSSYWMHWVKQRPGQGLEWIGLIHPDSGSTNYNEMFKNKATLTVDRSSSTAYVQLSSLTSEDSAVYFCAGGGRLYFDYWGQGTTLTVSS
VL: DVVMTQTPLSLPVSLGDQASISCRSSQSLVHSNGDTYLRWYLQKPGQSPKLLIYKVSNRFSGVPDRFSGSGSGTDFTLKITRVEAEDLGVYFCSQSTHVPYTFGGGTKLEIK
B2: huAb3v2-CZ (conjugate)
VH: EVQLVQSGAEVKKPGSSVKVSCKASGYTFSSYWMHWVRQAPGQGLEWIGLIHPDSGSTNYNEMFKNRATLTVDRSTSTAYMELSSLRSEDTAVYYCAGGGRLYFDYWGQGTTVTVSS
VL: DIVMTQSPLSLPVTPGEPASISCRSSQSLVHSNGDTYLRWYLQKPGQSPQLLIYKVSNRFSGVPDRFSGSGSGTDFTLKISRVEAEDVGVYYCSQSTHVPYTFGGGTKVEIK
B3: huAb3v2.2-CZ (conjugate)
VH: B2 VH with D54W
VL: B2 VL with G34R
B4: huAb3v2.3-CZ (conjugate)
VH: B2 VH with D54W
VL: B2 VL with G34Q
B5: huAb3v2.8-CZ (conjugate)
VH: B2 VH with D54I
VL: B2 VL with G34R
B6: Ab8: murine anti-B7-H3 mAb (mouse hybridoma derived) (antibody, V domains shown)
VH: EVKLVESGGGLVKPGGSLKLSCAASGFTFSSYGMSWVRQTPEKRLEWVATISGGGNYTYCPDSVKGRFTISRDNAKNNLYLQMSSLRSEDTALYYCTRQRGYDYHYAMDFWGQGTSVTVSS
VL: DIQMTQSPASLSVSVGETVTITCRASENIYSNLAWHQQKQGKSPQLLVYAATNLADGVPSRFSGNGSDTQYSLKINSLQSEDFGSYFCQNFWGTSWTFGGGTKLEIK
B7: Ab12: murine anti-B7-H3 mAb (mouse hybridoma derived) (antibody, V domains shown)
VH: EVQLVESGGGLVKPGGSLKLSCAASGFTFSSYAMSWVRQTPEKRLEWVATISSGTNYTYYPDSVKGRFTISRDNAKNTLYLQMTSLRSEDTAMYYCARQGRYSWIAYWGQGTLVTVSA
VL: DIVLTQSPASLAVSLGQRATISCRASKSVSTSDYSYMHWNQQKPGQPPKLLIYLASNLESGVPARFSGSGSGTDFTLNIHPVEEEDAATYYCQHSRELLTFGAGTKLELK
B8: Ab4: murine anti-B7-H3 mAb (mouse hybridoma derived) (antibody, V domains shown)
VH: QVQLQQPGAELVKPGASVKLSCKASGYSFTSYWMHWVKQRPGQGLEWIGMIHPNSGSNNYNEKFKSKATLTVDKSSNTAYMQLSSLTSEDSAVYYCARRLGLHFDYWGQGTTLTVSS
VL: DIVMTQSQKFMSTPVGDRVSITCKASQNVGTAVAWYQQKPGQSPKLLIYSASNRYTGVPDRFTGSGSGTDFTLTISNMQSEDLADYFCQQYSSYPYTFGGGTKLEIK
B9: Ab11: murine anti-B7-H3 mAb (mouse hybridoma derived) (antibody, V domains shown)
VH: EVKLVESGGGLVQPGGSLRLSCATSGFTFTNYYMSWVRQPPGKALEWLGFIRNKANDYTTEYSASVKGRFTISRDNSQSILYLQMNTLRAEDSATYYCARESPGNPFAYWGQGTLVTVSA
VL: DIVMTQSPSSLTVTAGEKVTMTCKSSQSLLNSGTQKNFLTWYQQKPGQPPKLLIYWASTRESGVPDRFTGSGSGTDFTLTISSVQAEDLAVYFCQNDYIYPLTFGAGTKLELK
B10: Ab5: murine anti-B7-H3 mAb (mouse hybridoma derived) (antibody, V domains shown)
VH: QVQLQQPGDELVKPGASVKLSCKTSGYTFTTDWMHWVKQRPGQGLEWIGMIHPNSGTTNYNEKFKSKAALTVDKSSSTACMQLSSLTSEDSAVYYCARSYWKWYFDVWGTGTTVTVSS
VL: QIVLTQSPAIMSASLGEEITLTCSASSSVSYMHWYQQKSGTSPKLLIYSTSNLASGVPSRFSGSGSGTFYSLTISSVEAEDSADYYCHQWTSYMYTFGGGTKLEIK

Legend:
[1] = biological target: T1, soluble ECD of human B7-H3; experiment: Biacore T200 SPR binding kinetics, mAb capture; settings: Biacore T200, Fc capture of mAb, B7-H3 ECD as analyte, 1:1 binding model
Description: The binding affinity of the purified anti-B7-H3 monoclonal antibodies was determined by surface […]. […] The binding kinetics were derived from SPR measurements using a Biacore T200 instrument and a mAb capture approach (as described in the materials and methods below).
Biacore T200 SPR instruments were used to measure the binding kinetics of human B7-H3 (analyte) binding to various mAbs (ligands). The assay format was Fc-based capture via immobilized anti-mouse (Fc) (Pierce 31170) or immobilized anti-human (Fc) (Pierce 31125). A standard amine coupling protocol was employed to immobilize the capture reagents via primary amines to the carboxy-methyl (CM) dextran surface of CM5 sensorchips (Biacore); capture antibodies were coupled to a level of approximately 5000 RU. For binding kinetic measurements the assay buffer was HBS-EP+ (Biacore): 10 mM Hepes, pH7.4, 150 mM NaCl, 3 mM EDTA, 0.05% polysorbate 20. During the assay, all measurements were referenced against the capture surface alone. Each assay cycle consisted of the following steps: 1) Capture of ligand to approximately 50 RU; 2) Analyte injection over both reference and test surface, 240 μL at 80 μL/min, after which the dissociation was monitored for 900 seconds at 80 μL/min; 3) Regeneration of capture surface with low pH glycine. For kinetic determinations analyte injections were 3-point, 9-fold dilution series of 900 nM, 100 nM and 11.11 nM, buffer only injections were included for secondary referencing. Data were processed and fit to a 1:1 binding model using Biacore T200 Evaluation Software to determine the binding kinetic rate constants, ka (on-rate) and kd (off-rate), and the equilibrium dissociation constant (affinity, KD).

[2] = tested on: soluble ECD of cyno B7-H3; experiment: Biacore T200 SPR binding kinetics, mAb capture; parameters: species or system cynomolgus monkey; settings: Biacore T200, Fc capture of mAb, B7-H3 ECD as analyte, 1:1 binding model
soluble ECD of cyno B7-H3, sequence (as listed by the source): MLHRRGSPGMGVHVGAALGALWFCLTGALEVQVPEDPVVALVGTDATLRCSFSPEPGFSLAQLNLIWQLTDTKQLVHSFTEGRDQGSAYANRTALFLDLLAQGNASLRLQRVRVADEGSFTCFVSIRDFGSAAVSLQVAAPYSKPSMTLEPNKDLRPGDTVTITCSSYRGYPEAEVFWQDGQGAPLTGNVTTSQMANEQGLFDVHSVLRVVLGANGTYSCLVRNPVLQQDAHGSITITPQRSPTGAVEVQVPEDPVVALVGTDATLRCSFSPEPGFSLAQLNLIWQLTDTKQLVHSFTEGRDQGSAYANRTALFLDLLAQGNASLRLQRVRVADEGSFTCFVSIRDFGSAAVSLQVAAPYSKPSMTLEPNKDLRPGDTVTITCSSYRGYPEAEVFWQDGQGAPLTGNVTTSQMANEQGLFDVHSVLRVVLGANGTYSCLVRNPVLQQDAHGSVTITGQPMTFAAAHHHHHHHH

B7-H3 [3] = biological target: T2, B7-H3; experiment: Pair-wise SPR binding assay for epitope grouping; settings: simultaneous binding assay, 12° C.
Text: Pair-wise binding assays performed on Biacore T200 SPR instruments were used to determine the relative epitope grouping for the murine anti-B7-H3 mAbs as described in the methods below. […] Epitope groups are represented as individual ovals, some of which overlap with each other. Antibodies in different epitope groups can bind to B7-H3 simultaneously and likely bind to different epitopes while antibodies within a given epitope group cannot bind to B7-H3 simultaneously and likely bind to overlapping epitopes. The grouping information was derived from a simultaneous binding assay as described in materials and methods. Ab3, Ab4, Ab5, Abl 1, Ab12, and Ab8 groupings were ambiguous.
Pair-wise binding assays performed on Biacore T200 SPR instruments were used to determine the relative epitope grouping for a series of anti-B7-H3 mAbs. The assay format was Fc-based capture via immobilized anti-mouse(Fc) (Pierce 31170) or immobilized anti-human (Fc) (Pierce 31125). A standard amine coupling protocol was employed to immobilize the capture reagents via primary amines to the carboxy-methyl (CM) dextran surface of CM5 sensorchips (Biacore); capture antibodies were coupled to a level of approximately 2000 RU. Epitope grouping measurements were done at 12° C. (low temperature allows for grouping information on fast off-rate mAbs), the assay buffer was HBS-EP+(Biacore): 10 mM Hepes, pH7.4, 150 mM NaCl, 3 mM EDTA, 0.05% polysorbate 20. Each assay cycle consisted of the following steps in a four flowcell system: 1) separate test mAbs were captured in flowcells 2, 3 & 4 (flowcell 1 was reference, no test mAb); 2) all 4 flowcells were then blocked by injection with isotype control mAb or isotype mAb cocktail at 50 μg/mL; 3) all 4 flowcells were then injected with antigen or buffer only (buffer only is for double referencing, done for each mAb pair individually); 4) all 4 flowcells were then injected with 2nd test mAb at 10 μg/mL; 5) all 4 flowcells were then regenerated with glycine, pH1.5. The assay was done for each test mAb pair in reciprocal orientations. Simultaneous binding was evaluated examining the ratio of the 2nd test mAb response to the Ag response (RUmAb2/RUAg); if this ratio was equal to or greater than 0.2 the interaction was scored as a simultaneous binder. From this pair-wise binding assay data a “venn” style diagram was constructed manually to depict relative epitope groupings.

[4] = Aggregation of conjugates by SEC; assay type: physicochemical
HCC38 cell line = experiment: Cell cytotoxicity of ADCs in HCC38 cell line; assay type: cell-based; settings: Table 14; CZ conjugates
In short: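 Humanized anti-B7-H3 antibody (chAb18) variants conjugated to the Bcl-xL inhibitor synthon CZ and tested as ADCs for cytotoxicity in HCC38 cells.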

H847 cells = experiment: Cell cytotoxicity of ADCs in H847 cells; assay type: cell-based; settings: Table 17; CZ conjugates; read-out: Cytotoxicity (H847 Cell line IC50)
Text: These new anti-B7-H3 antibodies were further characterized for binding by SPR and conjugated to the Bcl-xLi synthon CZ and assessed for cell cytotoxicity (using the methods described in Example 7).

NCI-H146 cells = experiment: In vivo xenograft model of small cell lung cancer (NCI-H146); parameters: species or system mice; settings: Table 15; 6 mg/kg/IP/QDx1
B7-H3 [5] = biological target: T2, B7-H3; experiment: Affinity of naked mAbs by SPR (Biacore); assay type: binding; settings: Table 17
Description: The parental chAb18 from which the variants were derived was also tested as a comparator.

[6] = Table 17, CZ conjugates of huAb3v2 variants

Row | Molecule | huB7-H3 ka [1] [M⁻¹ s⁻¹] | huB7-H3 kd [1] [s⁻¹] | cynoB7-H3 ka [2] [M⁻¹ s⁻¹] | cynoB7-H3 kd [2] [s⁻¹] | relative human B7-H3 epitope grouping (B7-H3 [3]) | % agg by SEC ([4]; Table 14, CZ conjugates of Ab3 variants) [%] | IC50 (HCC38 cell line) [nM] | IC50 (H847 cells) [nM] | TGD (%) (NCI-H146 cells) | TGImax (%) (NCI-H146 cells) | % agg by SEC [4, 6] [%] | Affinity of naked mAbs (Biacore, KD) (B7-H3 [5])
1 | B1 | 520000 | 0.01 | 380000 | 0.01 | ambiguous | – | – | – | – | – | – | –
2 | B2 | – | – | – | – | – | 10.1 | 0.13 | 1.49 | 52 | 83 | – | –
3 | B3 | – | – | – | – | – | – | – | 26.7 | – | – | 1.8 | Poor fit
4 | B4 | – | – | – | – | – | – | – | – | – | – | 1.5 | Poor fit
5 | B5 | – | – | – | – | – | – | – | 2.36 | – | – | 5.7 | Poor fit
6 | B6 | 58000 | 9.9e-05 | 160000 | 0.00026 | ambiguous | – | – | – | – | – | – | –
7 | B7 | 38000 | 0.00025 | 55000 | 1e-05 | ambiguous | – | – | – | – | – | – | –
8 | B8 | 690000 | 0.0011 | 540000 | 0.00096 | ambiguous | – | – | – | – | – | – | –
9 | B9 | 20000 | 0.00089 | 27000 | 7.2e-05 | ambiguous | – | – | – | – | – | – | –
10 | B10 | 1.3e+06 | 0.012 | 1.4e+06 | 0.28 | ambiguous | – | – | – | – | – | – | –
